The results in this text go back to publication PMC7387793, “Structural Basis and Evolution of Glycan Receptor Specificities within the Polyomavirus Family” (mBio, 2020).

Experiment [1] deals with Goose hemorrhagic polyomavirus (GhPyV) major capsid protein VP1, amino acids 21 to 286 (goose hemorrhagic polyomavirus (GhPyV)). As to the kind of experiment: crystal structure; X-ray structures of truncated, assembly-incompetent VP1 pentamers, native and soaked with sialylated glycans; solved by molecular replacement with 5-fold NCS restraints.
For experiment [2], the target named is Finch polyomavirus (FiPyV) major capsid protein VP1, amino acids 22 to 291, C78S C92S (finch polyomavirus (FiPyV)). Described as above.
For another experiment, the target named is T1, GhPyV VP1 (Goose hemorrhagic polyomavirus, UniProt A0A860PKB9).
T1 construct: truncated VP1, residues 21-286, E. coli BL21(DE3), His tag cut by thrombin (GSHM left), pentamer; site includes counterclockwise monomer
As to the kind of experiment: X-ray crystal structure (soak). The experiment is classed as binding. The note with it: crystal soaked with 20 mM 2-O-Me-Neu5Ac, 17 h, MES/imidazole pH 6.5, 1.95 Å; BC2 loop site.

In experiment [3] the target is Sheep polyomavirus (ShPyV) major capsid protein VP1, amino acids 20 to 285, C95S (sheep polyomavirus (ShPyV)). The experiment can be described thus: crystal structure; X-ray structures of truncated, assembly-incompetent VP1 pentamers, native and soaked with sialylated glycans; solved by molecular replacement with 5-fold NCS restraints.
In experiment [4] the target is Chimpanzee polyomavirus (ChPyV) major capsid protein VP1, N- and C-terminally truncated, C154S (chimpanzee polyomavirus (ChPyV)). The description is as above.
Experiment [5] concerns the target New Jersey polyomavirus (NJPyV) major capsid protein VP1, amino acids 36 to 323 (New Jersey polyomavirus-2013 (NJPyV)). The experiment is described as above.
For experiment [6], the target named is Human polyomavirus 12 (HPyV12) major capsid protein VP1, amino acids 27 to 299 (human polyomavirus 12 (HPyV12)). The description is as above.

Consider “Goose hemorrhagic polyomavirus (GhPyV) major capsid protein VP1, amino acids 21 to 286 (domain or fragment)”, for which the stoichiometry N in experiment [1] worked out at 5.

“Finch polyomavirus (FiPyV) major capsid protein VP1, amino acids 22 to 291, C78S C92S (domain or fragment)”: the stoichiometry N in experiment [2] is 5.

`CO[C@]1(C(=O)O)C[C@H](O)[C@@H](NC(C)=O)[C@H]([C@H](O)[C@H](O)CO)O1` [2-O-Me-Neu5Ac]: on GhPyV VP1, the “X-ray crystal structure (soak)” value is “GhPyV VP1 with 2-O-Me-Neu5Ac”.

The compound “Sheep polyomavirus (ShPyV) major capsid protein VP1, amino acids 20 to 285, C95S (domain or fragment)” registered a stoichiometry N in experiment [3] of 5.

With “Chimpanzee polyomavirus (ChPyV) major capsid protein VP1, N- and C-terminally truncated, C154S (domain or fragment)”, the stoichiometry N in experiment [4] was found to be 5.

In the case of “New Jersey polyomavirus (NJPyV) major capsid protein VP1, amino acids 36 to 323 (domain or fragment)”, in experiment [5], the stoichiometry N was determined as 5.

For “Human polyomavirus 12 (HPyV12) major capsid protein VP1, amino acids 27 to 299 (domain or fragment)”, the stoichiometry N in experiment [6] was determined as 5.

What is called stoichiometry N is a count of units in the complex or per binding partner.
